In the supplement of paper PMC10567573:

B1: POMT2 (parent)
chain: VLRSRIRFIHLVTGCVLGSSGKVL

Variants of: B1
Experiment: protein stability index of a GFP-peptide fusion (GPS, HEK-293T) (PSI 1-6); higher = more stable
Details: c terminus: a fixed tail appended
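Also: lentivirally expressed fusions sorted by FACS into six bins by GFP to DsRed ratio, PSI derived from sequencing read proportions per bin multiplied by bin number.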

Protein stability index: each site, then its substitutions
I9: R 1.39 | W 1.71 | Q 2.87 | H 4.48 | V 1.5 | K 2.98 | Y 3.49 | N 2.64 | S 2.78 | G 2.62 | L 2.5 | M 2.73 | P 1.42 | F 1.85
C15: K 3.31 | Y 3.56 | F 1.72 | W 2.95 | N 1.4 | M 2.21 | E 3.73 | S 3.04 | T 1.4 | P 2.12 | R 2.13 | V 4.18 | I 1.67 | A 3.27 | G 3.07
V16: M 3.73 | K 3.78 | D 2.73 | L 3.58 | Y 3.11 | G 2.39 | P 4.02 | H 3.17 | E 2.4 | W 2.43 | R 4.75 | N 3.21 | F 1.63 | Q 2.89 | C 2.73 | I 1.6
L17: M 2.42 | W 3.74 | Q 1.08 | I 2.28 | P 1.74 | F 1.62 | Y 4.34 | G 3.47 | S 2.9 | V 2.1 | A 2.77 | R 2.35 | D 3.16 | H 2.75
S20: C 3.22 | A 3.46 | D 2.12 | F 1.43 | E 1.99
G18: T 2.14 | L 2.69 | V 1.38 | E 2.45 | C 2.32 | S 3.06 | R 2.35 | M 2.78 | A 2.35 | K 2 | N 4.13 | D 1.67 | I 2.37
L11: Q 2.87 | E 2.96 | S 3.27 | I 2.01 | M 1.68 | A 2.33 | D 2.48 | T 3.02 | R 1.73 | K 2.13 | P 2.4 | G 2.18 | H 2.02 | N 2.07 | C 3.74
T13: Q 2.86 | V 3.37 | K 2.22 | P 4.82 | E 2.08 | A 2.01 | Y 3.54 | I 2.31 | L 3.22 | G 1.51 | H 2.02 | D 2.35 | F 1.64
V12: H 2.88 | K 3.48 | S 2.53 | L 2.13 | P 2.25 | F 3.19 | I 2.81 | M 3.2 | T 4.51 | Q 1.05 | C 2.2 | G 1.84 | E 4.33 | N 3.83 | W 1.94 | R 2.65
S19: R 2.41 | C 2.51 | V 2.73 | A 1.93 | K 1.67 | T 3.6 | F 2.63 | N 2.73 | L 1.78 | G 1.99 | W 2.66 | P 3.18 | I 2.59 | D 3.66 | M 3.45
G14: S 3.28 | F 3.15 | Y 3.68 | T 2.33 | P 2.97 | E 1.96 | R 2.85 | V 4.81 | A 4.85 | M 1.85 | W 2.51 | K 3.83 | I 3.23 | D 1.88 | L 2.46 | N 2.11
H10: Y 2.84 | M 1.99 | W 2.63 | N 2.3 | G 3.29 | P 3.05 | K 1.58 | R 2.5 | I 3.35 | F 3.38 | C 2.67 | D 2.56 | A 2.56 | T 2.92 | L 1.87
